This is an account of results in US20210388084A1 (JJP BIOLOGICS SP Z O O, published 2021).

Test [1] deals with T1, membrane-bound full-length human CD89 (human, UniProt P24071 22-287).
T1 construct: on stably or transiently transfected HEK293F cells; also called FcalphaRI; huCD89
Kind of test: FACS, HEK293F-huCD89, unlabeled Ab 10 ug/mL first; competitor A3-PE. For orientation: A flow cytometer gives signals particle by particle.
Description: (§1) Then, 10 μL/tube (ie, 0.1×10⁶ cells) of these cells were incubated with or without 100 μL purified mouse anti-human CD89 antibody at 10 μg/mL (in PBS/BSA/NaN₃) for 30 minutes at 4° C. […] After extensive washing in PBS/BSA/NaN₃, cells were fixed in 2% formaldehyde in PBS/BSA/NaN₃ for 30 minutes at 4° C.

In test [2] the target is T2, recombinant C-terminal polyhistidine-tagged human (extracellular) CD89 (human, UniProt P24071 22-227).
T2 construct: extracellular domain; bought (Sino Biological); also called rhuCD89
Kind of test: ELISA, coated rhuCD89, half-maximum binding. (In general: ELISA stands for enzyme-linked immunosorbent assay.)
Description: After extensive washing with PBS/0.05% Tween 20, plates were blocked with PBS/0.05% Tween 20/1% BSA (Roche) for 1 hour at RT. Subsequently, plates were incubated with 50 μL titrated (in block buffer) purified mouse anti-human CD89 antibody/well for 1 hour at RT. […] After extensive washing in PBS/0.05% Tween 20, binding of antibodies on rhuCD89 was determined with 1:5,000 diluted horseradish peroxidase (HRP)-conjugated goat anti-mouse IgG Fey-specific antibodies (Jackson ImmunoResearch) for 1 hour at RT, followed by a ready-to-use solution of TMB substrate (Invitrogen) for colorimetric detection.
After extensive washing with PBS/0.05% Tween 20, plates were blocked with PBS/0.05% Tween 20/1% BSA (Roche) for 1 hour at RT. Subsequently, plates were incubated with and without 50 μL titrated (in block buffer) purified chimeric mouse/human anti-human CD89 antibody/well for 1 hour at RT. After extensive washing in PBS/0.05% Tween 20, binding of antibodies on rhuCD89 was determined with 1:5,000 diluted horseradish peroxidase (HRP)-conjugated goat anti-human IgG Fey-specific antibodies (Jackson ImmunoResearch) for 1 hour at RT, followed by a ready-to-use solution of TMB substrate (Invitrogen) for colorimetric detection.

Test [3] has as its target T1, membrane-bound full-length human CD89. Kind of test: FACS, HEK293F-huCD89, 4C +NaN3, IgA then Ab 10 ug/mL; pre-bound heat-aggr serum IgA.
Description: (§2) After extensive washing in PBS/BSA/NaN₃, 1:200 diluted PE-conjugated streptavidin (Jackson ImmunoResearch) was added, and incubated for 30 minutes at 4° C. After extensive washing in PBS/BSA/NaN₃, cells were fixed in 2% formaldehyde in PBS/BSA/NaN₃ for 30 minutes at 4° C.
Test [4] has the same target. Kind of test: FACS, HEK293F-huCD89, 4C +NaN3, Ab 10 ug/mL then IgA; competitor non-aggr serum IgA.
Description: Then, 10 μL/tube (ie, 0.1×10⁶ cells) of these cells were incubated with or without 50 μL purified mouse anti-human CD89 antibody at 20 μg/mL (in PBS/BSA/NaN₃) for 30 minutes at 4° C. […] After extensive washing in PBS/BSA/NaN₃, 1:200 diluted PE-conjugated streptavidin (Jackson ImmunoResearch) was added, and incubated for 30 minutes at 4° C. After extensive washing in PBS/BSA/NaN₃, cells were fixed in 2% formaldehyde in PBS/BSA/NaN₃ for 30 minutes at 4° C.
Test [5] has the same target. In words: FACS, HEK293F-huCD89, unlabeled Ab 10 ug/mL first; competitor MIP8a-PE.
Description: as §1
The target of test [6] is T3, chimeric bovine EC1-Fcγ2R/human EC2-CD89 (bovine/human chimera).
T3 chain: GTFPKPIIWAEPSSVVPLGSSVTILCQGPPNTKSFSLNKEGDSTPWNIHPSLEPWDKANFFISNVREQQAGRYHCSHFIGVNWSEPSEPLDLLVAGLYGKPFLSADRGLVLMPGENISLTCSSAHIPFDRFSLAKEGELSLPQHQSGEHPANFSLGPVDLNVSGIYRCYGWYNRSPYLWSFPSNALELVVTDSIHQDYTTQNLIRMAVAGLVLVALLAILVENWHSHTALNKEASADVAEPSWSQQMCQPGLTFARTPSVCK
In words: FACS, transiently transfected HEK293F.
Description: After 48 hours and/or 72 hours, the binding of CD89/IgA blocking mouse anti-human CD89 antibodies to aforementioned chimeric human/bovine receptors on transfected cells was analyzed by FACS analysis. To this end, transient transfected HEK293F cells were put at 10×10⁶ cells/mL in ice-chilled phosphate-buffered saline containing 0.1% BSA (Sigma)/0.05% NaN₃ (PBS/BSA/NaN₃) supplemented with 50 μg/mL human IgGs (blocking Fcγ receptors; Sigma) for 10 minutes at 4° C. Then, 10 μL/tube (ie, 0.1×10⁶ cells) of these cells were incubated with or without 100 μL purified mouse anti-human CD89 antibody at 10 μg/mL (in PBS/BSA/NaN₃) for 30 minutes at 4° C. […] After extensive washing in PBS/BSA/NaN₃, cells were subsequently incubated with 1:200 diluted PE-conjugated goat anti-mouse IgG Fey-specific antibodies (Jackson ImmunoResearch) for 30 minutes at 4° C. After extensive washing in PBS/BSA/NaN₃, cells were fixed in 2% formaldehyde in PBS/BSA/NaN₃ for 30 minutes at 4° C.

In test [7] the target is T1, membrane-bound full-length human CD89. Kind of test: FACS, HEK293F-huCD89, 24 h 37C no NaN3, IgA then Ab 10 ug/mL; pre-bound heat-aggr serum IgA.
Description: as §2
Test [8] concerns the target T4, chimeric human/cynomolgus monkey CD89-II (human/cynomolgus monkey chimera, UniProt P24071 22-287).
T4 construct: also called ΔIle47-Ile71 human EC1-CD89; II (47-71)
T4 chain: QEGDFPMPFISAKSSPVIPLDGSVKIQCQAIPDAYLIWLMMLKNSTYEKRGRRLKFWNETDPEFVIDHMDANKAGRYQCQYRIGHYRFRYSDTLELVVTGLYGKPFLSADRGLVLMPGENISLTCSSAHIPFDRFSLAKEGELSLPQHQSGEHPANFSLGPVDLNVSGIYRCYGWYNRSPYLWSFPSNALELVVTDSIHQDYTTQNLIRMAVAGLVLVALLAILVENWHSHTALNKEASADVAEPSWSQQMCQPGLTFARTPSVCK
Kind of test: FACS, transiently transfected HEK293F, 10 ug/mL; ++ strong, + intermediate, -/+ weak.
Description: (§3) After 48 hours, the binding of CD89/IgA blocking mouse anti-human CD89 antibodies to aforementioned chimeric human CD89/cynomolgus monkey CD89 constructs on transfected cells was analyzed by FACS analysis. To this end, transient transfected HEK293F cells were put at 10×10⁶ cells/mL in ice-chilled phosphate-buffered saline containing 0.1% BSA (Sigma)/0.05% NaN₃ (PBS/BSA/NaN₃) supplemented with 50 μg/mL human IgGs (blocking Fcγ receptors; Sigma) for 10 minutes at 4° C. Then, 10 μL/tube (ie, 0.1×10⁶ cells) of these cells were incubated with or without 100 μL purified mouse anti-human CD89 antibody at 10 μg/mL (in PBS/BSA/NaN₃) for 30 minutes at 4° C. […] After extensive washing in PBS/BSA/NaN₃, cells were subsequently incubated with 1:200 diluted PE-conjugated goat anti-mouse IgG Fey-specific antibodies (Jackson ImmunoResearch) for 30 minutes at 4° C. After extensive washing in PBS/BSA/NaN₃, cells were fixed in 2% formaldehyde in PBS/BSA/NaN₃ for 30 minutes at 4° C.

In test [9] the target is T5, chimeric human/cynomolgus monkey CD89-III (human/cynomolgus monkey chimera, UniProt P24071 22-287).
T5 construct: also called ΔGly72-Gly96 human EC1-CD89; III (72-96)
T5 chain: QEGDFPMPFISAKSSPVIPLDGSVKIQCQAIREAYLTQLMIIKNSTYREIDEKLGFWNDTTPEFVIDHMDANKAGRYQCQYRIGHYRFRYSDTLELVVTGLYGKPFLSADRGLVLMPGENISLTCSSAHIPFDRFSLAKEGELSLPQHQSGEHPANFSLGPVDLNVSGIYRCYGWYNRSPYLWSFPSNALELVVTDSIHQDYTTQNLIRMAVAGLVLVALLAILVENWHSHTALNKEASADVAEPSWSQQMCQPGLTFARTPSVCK
Described as above.
Description: as §3

The target of test [10] is T6, chimeric human/cynomolgus monkey CD89-I (human/cynomolgus monkey chimera, UniProt P24071 22-287).
T6 construct: also called ΔGln22-Lys46 human EC1-CD89; I (22-46)
T6 chain: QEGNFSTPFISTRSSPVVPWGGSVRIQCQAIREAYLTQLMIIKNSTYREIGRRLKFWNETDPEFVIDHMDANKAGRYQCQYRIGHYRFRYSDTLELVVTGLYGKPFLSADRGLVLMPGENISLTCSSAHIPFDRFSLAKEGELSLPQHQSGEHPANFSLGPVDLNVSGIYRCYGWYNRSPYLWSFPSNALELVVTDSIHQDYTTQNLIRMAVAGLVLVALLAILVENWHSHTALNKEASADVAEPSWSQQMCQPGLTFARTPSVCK
Described as above.
Description: as §3

In test [11] the target is T7, chimeric human/cynomolgus monkey CD89-IV (human/cynomolgus monkey chimera, UniProt P24071 22-287).
T7 construct: also called ΔArg97-Gly121 human EC1-CD89
T7 chain: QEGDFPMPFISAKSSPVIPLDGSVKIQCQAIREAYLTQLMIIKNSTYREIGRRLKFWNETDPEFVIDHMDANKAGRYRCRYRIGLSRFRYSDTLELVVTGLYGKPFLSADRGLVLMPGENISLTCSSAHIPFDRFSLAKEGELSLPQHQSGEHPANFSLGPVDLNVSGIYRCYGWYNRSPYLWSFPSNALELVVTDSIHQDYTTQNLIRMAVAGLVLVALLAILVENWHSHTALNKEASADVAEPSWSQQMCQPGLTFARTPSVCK
The description is as above.
Description: as §3

For test [12], the target named is T1, membrane-bound full-length human CD89. Kind of test: FACS, HEK293F-huCD89, 24 h 37C no NaN3, Ab 10 ug/mL then IgA; competitor heat-aggr serum IgA.
Description: as §2
Test [13] shares this target. Kind of test: FACS, HEK293F-huCD89, unlabeled Ab 10 ug/mL first; competitor A59-PE.
Description: as §1
Test [14] has the same target. Kind of test: FACS, HEK293F-huCD89, half-maximum binding.
Description: Then, 10 μL/tube (ie, 0.1×10⁶ cells) of these cells were incubated with or without 100 μL titrated (in PBS/BSA/NaN₃) purified chimeric mouse/human anti-human CD89 antibody/tube for 30 minutes at 4° C. […] After extensive washing in PBS/BSA/NaN₃, cells were subsequently incubated with 1:200 diluted PE-conjugated goat anti-human IgG Fey-specific antibodies (Jackson ImmunoResearch) for 30 minutes at 4° C. After extensive washing in PBS/BSA/NaN₃, cells were fixed in 2% formaldehyde in PBS/BSA/NaN₃ for 30 minutes at 4° C.
The target in test [15] is T8, chimeric human/cynomolgus monkey CD89-hotspots (human/cynomolgus monkey chimera, UniProt P24071 22-287).
T8 construct: also called ΔThr58, Gln59; ΔArg73, Arg74, Lys76
T8 chain: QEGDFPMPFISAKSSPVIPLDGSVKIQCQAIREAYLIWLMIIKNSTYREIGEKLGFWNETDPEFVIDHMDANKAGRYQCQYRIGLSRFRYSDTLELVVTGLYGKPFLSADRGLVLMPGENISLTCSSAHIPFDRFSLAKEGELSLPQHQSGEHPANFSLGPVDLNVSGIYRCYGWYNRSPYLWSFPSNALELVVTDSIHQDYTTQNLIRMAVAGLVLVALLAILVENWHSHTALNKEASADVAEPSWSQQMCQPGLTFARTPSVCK
In words: FACS, transiently transfected HEK293F; - = no binding.
Description: as §3

Test [16] has as its target T1, membrane-bound full-length human CD89. Kind of test: FACS, HEK293F-huCD89, 4C +NaN3, Ab 10 ug/mL then IgA; competitor heat-aggr serum IgA.
Description: To mimic human IgA immune complexes, human (serum-derived) IgA (Bethyl Laboratories) was heated at 63° C. for 30 minutes, and cooled down to RT followed by centrifugation at 4° C. 12000×g for 2 minutes to remove any insoluble protein precipitation.
Then, 10 μL/tube (ie, 0.1×10⁶ cells) of these cells were incubated with or without 50 μL purified mouse anti-human CD89 antibody at 20 μg/mL (in PBS/BSA/NaN₃) for 30 minutes at 4° C.
Test [17] shares this target. Kind of test: FACS, HEK293F-huCD89, 24 h 37C no NaN3, Ab 10 ug/mL then IgA; competitor non-aggr serum IgA.
Description: as §2
For test [18] the target is unchanged. Kind of test: FACS, HEK293F-huCD89, 24 h 37C no NaN3, IgA then Ab 10 ug/mL; pre-bound non-aggr serum IgA.
Description: as §2
The target in test [19] is T8, chimeric human/cynomolgus monkey …. Kind of test: FACS, transiently transfected HEK293F, 10 ug/mL; ++ strong, + intermediate, -/+ weak.
Description: as §3
Test [20] concerns the target T1, membrane-bound full-length human CD89. In words: FACS, HEK293F-huCD89, 4C +NaN3, IgA then Ab 10 ug/mL; pre-bound non-aggr serum IgA.
Description: After this (ie, without washing), 50 μL purified mouse anti-human CD89 antibody at 20 μg/mL (in PBS/BSA/NaN₃) was added to these cells, and incubated for another 30 minutes at 4° C. […] After extensive washing in PBS/BSA/NaN₃, 1:200 diluted PE-conjugated streptavidin (Jackson ImmunoResearch) was added, and incubated for 30 minutes at 4° C. After extensive washing in PBS/BSA/NaN₃, cells were fixed in 2% formaldehyde in PBS/BSA/NaN₃ for 30 minutes at 4° C.
Test [21] concerns the target T4, chimeric human/cynomolgus monkey CD89-II. Kind of test: FACS, transiently transfected HEK293F; - = no binding.
Description: as §3
In test [22] the target is T9, membrane full-length cynomolgus monkey CD89 (cynomolgus monkey).
T9 construct: also called cynoCD89; cynomolgus EC1-CD89
T9 chain: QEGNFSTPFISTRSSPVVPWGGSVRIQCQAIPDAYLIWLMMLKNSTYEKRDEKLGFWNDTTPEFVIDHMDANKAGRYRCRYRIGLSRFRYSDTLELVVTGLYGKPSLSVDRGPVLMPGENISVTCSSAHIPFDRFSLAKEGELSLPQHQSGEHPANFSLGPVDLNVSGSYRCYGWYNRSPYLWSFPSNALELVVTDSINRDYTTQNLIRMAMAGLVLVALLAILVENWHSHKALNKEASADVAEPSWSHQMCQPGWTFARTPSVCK
The test is described as above.
Description: as §3

B1: mouse anti-human CD89-specific antibody 16D6 (antibody, mouse IgG1, V domains shown)
VH: QVQLQQSGAELMKPGASVKISCKATGYTFSTYWIEWVKQRPGHGLEWIGEILPGSGSANYNEKFKGKATFTADTSSNTAYMQLSSLTFEDSAVYYCAKGFGSPYYYAMDYWGQGTSVTVSS
VL: EIVLTQSPALMAASPGEKVTITCSVSSSISSSNLHWYQQKSETSPKPWIYGTSKLASGVPVRFSGSGSGTSYSLTISNMEAEDAATYYCQQWSSFPLTFGGGTKLEIK
notes: also called 16D16
What is called EC50 is the concentration at which the effect is half-maximal. Regarding B1, the “% blocking of A3-PE binding” value in [1] is below 25%. The EC50 was 0.119 µg/mL in test [2] and 1.62 µg/mL in [14]. In addition, the “percent IgA binding” value in test [3] was 76 to 125%; in test [4], 0 to 25%; in test [16], 0 to 25%. Further, in test [5], the “% blocking of MIP8a-PE binding” value is below 25%. In addition, the binding result in test [6] was “no binding (tested: 10 µg/mL)”; in [8], “binds”; in test [9], “binds”; in test [10], “binds”; in test [11], “binds”; in test [15], “no binding (tested: 10 µg/mL)”. In addition, the “percent IgA binding (remaining)” value in test [7] and in test [12] was 76 to 125% throughout. For the same molecule, the “% blocking of A59-PE binding” value in [13] is below 25%.

B2: mouse anti-human CD89-specific antibody 30C7 (antibody, mouse IgG1, V domains shown)
VH: QVQLQQSGPELVRPGVSVKISCKGSGYTFTDYVMHWVKQSHAKSLEWIGVISTYSGNTNYNQKFKGKATMTVDKSSSTAYMELARLTSEDSAIYYCARESDGYYFDYWGQGTTLTVSS
VL: DIVMSQSPSSLAVSAGEKVTMSCKSSQSLLNSRTRKNYLAWYQQKPGQSPKLLIYWASTRESGVPDRFTGSGSGTDFTLTISSVQAEDLAVYYCKQSYNLMYTFGGGTKLEIK
B2: the “percent IgA binding (remaining)” value in [17], in test [7], in [18] and in test [12] was 0 to 25% throughout. In addition, the “% blocking of A3-PE binding” value in test [1] was below 25%. Further, the EC50 in [2] is 0.029 µg/mL; in test [14], 0.484 µg/mL. Besides, the “percent IgA binding” value in [4] lay in the range of 0 to 25%; in [20] it was 26 to 50%; in test [16] it was 0 to 25%. Also, the “% blocking of MIP8a-PE binding” value in test [5] was above 90%. The binding result in test [6] is listed as “no binding (tested: 10 µg/mL)”; in test [9], “binds”; in test [19], “binds”; in [10], “binds”; in test [11], “binds”; in [21] it was “no binding (tested: 10 µg/mL)”. Also, in test [13], the “% blocking of A59-PE binding” value is below 25%.

B3: mouse anti-human CD89-specific antibody 26D6 (antibody, mouse IgG1, V domains shown)
VH: QIQLVQSGPELKKPGETVKISCKASGYTLTKYGMNWVKQAPGKGLKWMGWINTYTGEPTYADDFKGRFAFSLETSASTAYLQINNLKNEDTATYFCASLPLFGRDSFAYWGQGTLVTVSA
VL: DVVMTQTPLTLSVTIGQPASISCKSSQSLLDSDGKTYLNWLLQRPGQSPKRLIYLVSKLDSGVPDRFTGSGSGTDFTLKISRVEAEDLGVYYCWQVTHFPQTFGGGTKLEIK
notes: printed as 26B6 in some paragraphs; also called 26B6
As for B3, the “percent IgA binding (remaining)” value in test [17], in [7], in [18] and in test [12] was 0 to 25% each time. Further, the “percent IgA binding” value in test [3], in [4], in [20] and in test [16] was 0 to 25% throughout. Besides, in test [5], the “% blocking of MIP8a-PE binding” value was above 90%. The binding result in test [6] is given as “no binding (tested: 10 µg/mL)”; in test [8] it was “binds”; in test [9] it was “binds”; in [19], “binds”; in test [10] it was “binds”; in test [22], “no binding (tested: 10 µg/mL)”.
